Results published in PMC8777244 (Biochemistry and Biophysics Reports, 2022).
Like-named read-outs stand apart in the source and are kept apart here. Values belong to the binder of their own block, whether it stands above or below them. Where no end group is shown, it is not given here. The star is where a group is joined. Dansyl = CN(C)c1cccc2c(S(=O)(=O)*)cccc12; MBP = maltose binding protein fusion

Key:
Dansyl-labeled CaM = Dansyl-labeled CaM (UniProt P0DP23 1-149, Dansyl label (site not stated)); experiment: other fluorescence titration
[1] = target: T1, recombinant 6xHis-tagged calmodulin (UniProt P0DP23 1-149); experiment: ITC
[2] = target: T1, recombinant 6xHis-tagged calmodulin; experiment: ITC; remark: listed apart in the source
[3] = target: T1, recombinant 6xHis-tagged calmodulin; experiment: ITC; remark: listed apart in the source
[4] = target: T1, recombinant 6xHis-tagged calmodulin; experiment: fluorescence polarisation
[5] = target: T1, recombinant 6xHis-tagged calmodulin; experiment: ITC; remark: listed apart in the source
[6] = target: T1, recombinant 6xHis-tagged calmodulin; experiment: ITC; remark: listed apart in the source
[7] = target: C-terminal half domain of CaM (residues 76-149) fused to blue fluorescent protein (UniProt P0DP23 76-149); experiment: ITC
[8] = target: N-terminal half domain of CaM (residues 1-75) fused to cyan fluorescent protein (UniProt P0DP23 1-75); experiment: ITC
[9] = target: T1, recombinant 6xHis-tagged calmodulin; experiment: other fluorescence titration
[10] = target: T1, recombinant 6xHis-tagged calmodulin; experiment: other fluorescence titration; remark: listed apart in the source
SEC [11] = target: the molecule itself; experiment: SEC
SEC [12] = target: the molecule itself; experiment: SEC; remark: listed apart in the source

B1: MBP-fused human Nox5β dehydrogenase domain residues 605-719 (domain or fragment)
chain: SLLTKLEMDQAEEAQYGRFLELHMYMTSALGKNDMKAIGLQMALDLLANKEKKDSITGLQTRTQPGRPDWSKVFQKVAAEKKGKVQVFFCGSPALAKVLKGHCEKFGFRFFQENF
Ka (Dansyl-labeled CaM): 2.52e+06 M⁻¹ | stoichiometry N (Dansyl-labeled CaM): 1.02 [Peptide]/[Protein] | Ka [1]: ~1e+06 M⁻¹ | Ka [2]: 894000 M⁻¹

B2: MBP-fused human Nox5β dehydrogenase domain residues 528-719 (domain or fragment)
chain: PTRRIFASEHAVLIGAGIGITPFASILQSIMYRHQKRKHTCPSCQHSWIEGVQDNMKLHKVDFIWINRDQRSFEWFVSLLTKLEMDQAEEAQYGRFLELHMYMTSALGKNDMKAIGLQMALDLLANKEKKDSITGLQTRTQPGRPDWSKVFQKVAAEKKGKVQVFFCGSPALAKVLKGHCEKFGFRFFQENF
Ka (Dansyl-labeled CaM): 1.39e+06 M⁻¹ | stoichiometry N (Dansyl-labeled CaM): 0.92 [Peptide]/[Protein] | Ka [2]: 2.71e+06 M⁻¹

B4: MBP-fused human Nox5β dehydrogenase domain residues 584-719 (domain or fragment, UniProt Q96PH1-4 584-719, looked up)
chain: KLHKVDFIWINRDQRSFEWFVSLLTKLEMDQAEEAQYGRFLELHMYMTSALGKNDMKAIGLQMALDLLANKEKKDSITGLQTRTQPGRPDWSKVFQKVAAEKKGKVQVFFCGSPALAKVLKGHCEKFGFRFFQENF
Ka (Dansyl-labeled CaM): 1.82e+06 M⁻¹ | stoichiometry N (Dansyl-labeled CaM): 0.89 [Peptide]/[Protein] | stoichiometry N (SEC [11]): ~4 | Ka [2]: 933000 M⁻¹ | stoichiometry N (SEC [12]): ~3

The next lines start with the values.

Ka [3]: 1.02e+06 M⁻¹ | Ka [4]: 8.64e+06 M⁻¹ | dH (per mole CMBD) [5]: -3.81 kcal/mol | stoichiometry N [5]: 1.83 | Ka [6]: 878000 M⁻¹ | dH (per mole protein) [6]: -6.94 kcal/mol | stoichiometry N [6]: 1.82 [peptide]/Protein] | Ka [7]: 950000 M⁻¹ | dH (per mole protein) [7]: -4.02 kcal/mol | stoichiometry N [7]: 1.04 [peptide]/Protein] | Ka [8]: 2.42e+06 M⁻¹ | dH (per mole protein) [8]: -3.94 kcal/mol | stoichiometry N [8]: 0.89 [peptide]/Protein] | Ka [9]: 1.71e+07 M⁻¹
Binder: RPDWSKVFQKVAAEKKGKV [human Nox5β CaM-binding domain (CMBD) peptide, residues 671-689]

Ka [10]: 4.95e+06 M⁻¹
Binder: Dansyl-RPDWSKVFQKVAAEKKGKV [N-terminal Dansyl-labeled human Nox5β CMBD peptide]

Ka (Dansyl-labeled CaM): 4.9e+06 M⁻¹ | stoichiometry N (Dansyl-labeled CaM): 0.92 [Peptide]/[Protein] | Ka [2]: 1.39e+06 M⁻¹
B3: MBP-fused human Nox5β dehydrogenase domain residues 665-719 (domain or fragment)
chain: {MBP}-TRTQPGRPDWSKVFQKVAAEKKGKVQVFFCGSPALAKVLKGHCEKFGFRFFQENF
modifications: cysteine pairing not given here
